Assay results: publication PMC3543382, “Elements of Transcriptional Machinery Are Compatible among Plants and Mammals” (PLoS ONE, 2013)

Target: RelA-ECFP (human, UniProt Q04206 1-551)
Experiment: cell-based or functional assay

RelA-ECFP, sequence (Q04206 whole entry): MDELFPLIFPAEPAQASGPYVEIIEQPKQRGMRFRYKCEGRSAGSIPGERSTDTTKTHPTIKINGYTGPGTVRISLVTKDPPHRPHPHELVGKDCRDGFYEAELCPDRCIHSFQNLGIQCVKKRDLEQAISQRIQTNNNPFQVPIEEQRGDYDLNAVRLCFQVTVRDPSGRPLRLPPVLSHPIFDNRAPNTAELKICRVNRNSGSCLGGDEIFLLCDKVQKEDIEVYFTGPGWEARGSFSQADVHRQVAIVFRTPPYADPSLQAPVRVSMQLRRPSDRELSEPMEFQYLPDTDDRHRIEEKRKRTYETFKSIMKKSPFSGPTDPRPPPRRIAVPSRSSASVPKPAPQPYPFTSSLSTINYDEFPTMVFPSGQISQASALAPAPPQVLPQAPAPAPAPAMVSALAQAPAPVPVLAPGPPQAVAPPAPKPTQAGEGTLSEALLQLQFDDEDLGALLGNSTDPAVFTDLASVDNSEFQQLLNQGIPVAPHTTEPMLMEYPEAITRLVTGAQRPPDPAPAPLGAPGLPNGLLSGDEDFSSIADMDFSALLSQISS

B1: IκB-EYFP (natural protein, human, UniProt P25963 1-317, looked up)
chain: MFQAAERPQEWAMEGPRDGLKKERLLDDRHDSGLDSMKDEEYEQMVKELQEIRLEPQEVPRGSEPWKQQLTEDGDSFLHLAIIHEEKALTMEVIRQVKGDLAFLNFQNNLQQTPLHLAVITNQPEIAEALLGAGCDPELRDFRGNTPLHLACEQGCLASVGVLTQSCTTPHLHSILKATNYNGHTCLHLASIHGYLGIVELLVSLGADVNAQEPCNGRTALHLAVDLQNPDLVSLLLKCGADVNRVTYQGYSPYQLTWGRPSTRIQQQLGQLTLENLQMLPESEDEESYDTESEFTEFTEDELPYDDCVFGGQRLTL
transactivation of the IκBα-promoter EYFP reporter by the p50/RelA heterodimer in the presence of IκB (untagged proteins) in Arabidopsis protoplasts, EYFP/ECFP emission relative to the basal activity: 3.5 fold
